Measurements from patent US20250197505A1 (DREN BIO, published 2025).

Key:
[1] = biological target: T1, human CD94 expressed on cells (human primary NK cells in PBMCs; HEK cells expressing human CD94) (human, UniProt Q13241 1-179); test: HLA-E tetramer blocking assay, flow cytometry on CD3-CD56+ NK cells in healthy donor PBMCs; antibody at one saturating concentration, blocked ligand PE-labelled HLA-E tetramer; percent blocking = 100-((percent HLA-E positive with antibody)/(percent HLA-E positive with isotype)*100)
T1 construct: whole, on cells; also called KLRD1; Natural killer cells antigen CD94
T1 sequence (looked up): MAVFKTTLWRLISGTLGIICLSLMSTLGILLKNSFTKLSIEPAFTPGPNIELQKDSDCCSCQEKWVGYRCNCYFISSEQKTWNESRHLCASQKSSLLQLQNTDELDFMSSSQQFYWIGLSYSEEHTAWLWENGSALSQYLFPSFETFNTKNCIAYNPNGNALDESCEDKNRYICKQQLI
Description: Healthy donor PBMCs were incubated with anti-CD94 antibodies. PE labeled HLA-E tetramer was then incubated with the cell and antibody mixture, and detected using flow cytometry. For HP-3B1, 131412, 12K45, DX22, 1M4 and 1E4, 2.5 μl of HLA-E tetramer reagent was used, while 5 μl was used for 18H3 and HP-3D9. Saturating concentrations of each antibody was used in this assay. The percent blocking was calculated as 100−((percent HLA-E positive for anti-CD94 antibody)/(percent HLA-E positive for isotype)*100).
Healthy donor PBMCs were seeded in 96-well plates at a density of 100,000 cells per well, incubated with human Fc block (Biolegend) and cell viability dye (Thermo Fisher) for 30 minutes on ice and protected from light. The cells were washed once with FACS buffer (PBS with 2% IgG low FBS). anti-CD94 antibodies at EC80 concentrations were incubated with cells for 30 minutes on ice and protected from light. After incubation with the anti-CD94 antibodies, the cells were washed and incubated with HLA-E tetramer PE (Creative Biolabs), anti-CD3 pacific blue-labelled, and anti-CD56 FITC-labelled antibodies (Biolegend) for 30 minutes on ice and protected from light. The cells then received a final wash in FACS buffer before quantification on the Cytoflex (Beckman Coulter). All data acquisition and fluorescence compensation were performed using CytoFlex (Beckman Coulter, Atlanta, GA). Data analysis was performed using FlowJo software. NK cells were identified through gating on lymphocytes on the forward and side scatter, followed by doublet and dead cell exclusion, and gated on the CD3−CD56+ population. HLA-E expression was then quantified on the CD3−CD56+NK cell population. Percent blocking was calculated as 100−((percent HLA-E positive for anti-CD94 antibody)/(percent HLA-E positive for isotype)*100).

[2] = biological target: T2, cynomolgus CD94 expressed on HEK293 cells (cynomolgus monkey, UniProt Q68VD4 1-179); test: flow cytometry, cynomolgus CD94-expressing HEK293 cells
T2 construct: also called cyno-CD94; cynomolgus monkey CD94
T2 sequence: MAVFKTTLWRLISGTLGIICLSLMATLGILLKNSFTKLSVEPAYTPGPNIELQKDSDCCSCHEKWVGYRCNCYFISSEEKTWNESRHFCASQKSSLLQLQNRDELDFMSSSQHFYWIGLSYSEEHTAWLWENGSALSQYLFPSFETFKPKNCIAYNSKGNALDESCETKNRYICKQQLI
From the text: Anti-CD94 hybridoma supernatants were screened on cynomolgus CD94-expressing HEK293 cells by flow cytometry for cross-reactivity to cynomolgus CD94. HP-3D9 is a commercial anti-CD94 antibody that was used as a negative control. Mouse IgG1, IgG2a, IgG2b and IgG3 were used as negative controls. […] Commercially available anti-CD94 antibodies were used to test cynomolgus cross-reactivity. 18H3 was used as a positive control. The MFI of each antibody was normalized to the MFI of its respective isotype.
Cynomolgus CD94-expressing HEK293 cells were seeded in 96-well plates at a density of 100,000 cells per well, incubated with cell viability dye (Thermo Fisher) for 30 minutes on ice and protected from light. The cells were washed once with FACS buffer (PBS with 2% IgG low FBS). Hybridoma supernatants, anti-CD94 antibodies and isotype controls were incubated with cells for 30 minutes on ice and protected from light. […] After incubation, the cells received a final wash in FACS buffer before quantification on the Cytoflex (Beckman Coulter). All data acquisition and fluorescence compensation were performed using CytoFlex (Beckman Coulter, Atlanta, GA). […] CD94 expression was then quantified on this population. […]

[3] = biological target: T1, human CD94 expressed on cells (human …); test: competition assay, flow cytometry on CD3-CD56+ NK cells in healthy donor PBMCs; AF647-labelled 18H3 titrated in the presence of Mouse IgG1 control (no competitor)
Description: FIGS. 5A-5B show the results of competition assays performed for 18H3 anti-CD94 antibody evaluation. For all competition assays, 18H3 was incubated with PBMCs at a concentration of […]. […] Commercially available anti-CD94 antibodies were titrated and incubated with PBMCs concurrently with 18H3. […] To test competition between 18H3 and 1M4/1E4, 1M4 and 1E4 were incubated with cells at concentrations of 8.5 µg/ml and […], respectively. 18H3 was fluorescently tagged with AF647 and incubated with cells concurrently with […].
Healthy donor PBMCs were seeded in 96-well plates at a density of 100,000 cells per well, incubated with human Fc block (Biolegend) and cell viability dye (Thermo Fisher) for 30 minutes on ice and protected from light. The cells were washed once with FACS buffer (PBS with 2% IgG low FBS). Unconjugated anti-CD94 antibodies at EC80 concentrations, CD3 FITC and CD56 PE antibodies, and APC-labeled anti-CD94 antibodies were incubated with cells for 30 minutes on ice and protected from light. The cells then received a final wash in FACS buffer before quantification on the Cytoflex (Beckman Coulter). All data acquisition and fluorescence compensation were performed using CytoFlex (Beckman Coulter, Atlanta, GA). Data analysis was performed using FlowJo software. […] Anti-CD94 APC was then quantified on the CD3−CD56+NK cell population. […]

[4] = biological target: T1, human CD94 expressed on cells (human …); test: cell-based or functional assay

HLA-E Blocking [1]: 0%
binding result [2]: binds
EC50 (read off the curve) [3]: ~1 nM
percent decrease in MFI (antibody internalization assay), comparing 0.5 hours to 24 hours at 37° C. [4]: 24%
B1: anti-CD94 antibody clone 18H3 (antibody, V domains shown)
VH: EVQLVQSGAEVKKPGESLKISCKGSGYRFTSYWIGWVRQMPGKGLEWMGIIYPGDSDTRYSPSFQGQVIISADKSITTAFLQWSSLKASDTAMYYCARPFDYGGSPGYFDYWGQGTLVTVSS
VL: DIQMTQSPSTLSASVGDRVTITCRASQSIRSWLAWYQQKPGKAPKLLIYKASSLESGVPSRFSGSGSGTEFTLTISSLQPDDFATYYCQQYNTFWTFGQGTKVEIK
notes: also called 18H3-AF647
